Measurements: patent US20110223127A1 (NOXXON PHARMA, published 2011)

Target: T1, human [^125J]-SDF-1α (human, UniProt P48061 22-89, 125J (iodine-125) label, position not stated)
T1 construct: Bought from PerkinElmer; also called radiolabelled human SDF-1; CXCL12
Test: radioligand binding of human [125J]-SDF-1 to CHO cells expressing human CXCR4, scintillation counting (total binding, cpm); the blocker varied is the nucleic acid Spiegelmer 192-A10-001, preincubated with the ligand
Method: For binding assays CXCR4-expressing cells were seeded into polylysine-coated 24-well plates at a cell density of 1×10⁵ cells/well and cultivated overnight at 37° C. and 5% CO₂ in CHO-Ultra medium (Cambrex, Verviers, Belgium) containing 50 units/ml penicillin, 50 μg/ml streptomycin and 0.5 mg/ml geneticin.
For the binding experiment, the medium was removed and the cells were washed once with Hanks balanced salt solution, additionally containing 20 mM HEPES, 1 mg/ml bovine serum albumin, 0.1 mg/ml bacitracin (HBB). Then the cells were incubated in 0.2 ml HBB for 1 h at room temperature together with […] [¹²⁵J]-SDF-1 (PerkinElmer, Rodgau, Germany) and varying concentrations of Spiegelmer.
Non-specific binding was determined by adding unlabeled human SDF-1 (R & D Systems, Wiesbaden, Germany) to a final concentration of 0.5 μM to several wells.

T1 sequence (P48061 22-89): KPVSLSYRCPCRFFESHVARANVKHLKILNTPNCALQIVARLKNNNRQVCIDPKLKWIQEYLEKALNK

B1: human CXCR4-receptor (receptor, UniProt P61073 1-352, looked up)
chain: MEGISIYTSDNYTEEMGSGDYDSMKEPCFREENANFNKIFLPTIYSIIFLTGIVGNGLVILVMGYQKKLRSMTDKYRLHLSVADLLFVITLPFWAVDAVANWYFGNFLCKAVHVIYTVNLYSSVLILAFISLDRYLAIVHATNSQRPRKLLAEKVVYVGVWIPALLLTIPDFIFANVSEADDRYICDRFYPNDLWVVVFQFQHIMVGLILPGIVILSCYCIIISKLSHSKGHQKRKALKTTVILILAFFACWLPYYIGISIDSFILLEIIKQGCEFENTVHKWISITEALAFFHCCLNPILYAFLGAKFKTSAQHALTSVSRGSSLKILSKGKRGGHSSVSTESESSSFHSS
notes: whole, on cells; also called SDF-1 receptor
binding result: binds
